Test results as given in PMC13244463, “Intermolecular β‑sheet Formation Guides the Interaction between Ubiquitin-like Modifier FAT10 and Adapter Protein NUB1L” (Journal of the American Chemical Society, 2026).

Target: T1, Human NUB1L (amino acids 2-615) (human, UniProt Q9Y5A7-1 2-615)
T1 construct: NUB1L, the long isoform of NEDD8-ultimate buster 1, human, amino acids 2-615 (615 residues in the long isoform); Details are in the Supporting Information; also called NEDD8-ultimate buster 1 long isoform; natural abundance NUB1L; source: E. coli BL21-CodonPlus(DE3)-RIPL, LB medium, purified (same steps as for N-FAT10-C0)
T1 sequence (looked up): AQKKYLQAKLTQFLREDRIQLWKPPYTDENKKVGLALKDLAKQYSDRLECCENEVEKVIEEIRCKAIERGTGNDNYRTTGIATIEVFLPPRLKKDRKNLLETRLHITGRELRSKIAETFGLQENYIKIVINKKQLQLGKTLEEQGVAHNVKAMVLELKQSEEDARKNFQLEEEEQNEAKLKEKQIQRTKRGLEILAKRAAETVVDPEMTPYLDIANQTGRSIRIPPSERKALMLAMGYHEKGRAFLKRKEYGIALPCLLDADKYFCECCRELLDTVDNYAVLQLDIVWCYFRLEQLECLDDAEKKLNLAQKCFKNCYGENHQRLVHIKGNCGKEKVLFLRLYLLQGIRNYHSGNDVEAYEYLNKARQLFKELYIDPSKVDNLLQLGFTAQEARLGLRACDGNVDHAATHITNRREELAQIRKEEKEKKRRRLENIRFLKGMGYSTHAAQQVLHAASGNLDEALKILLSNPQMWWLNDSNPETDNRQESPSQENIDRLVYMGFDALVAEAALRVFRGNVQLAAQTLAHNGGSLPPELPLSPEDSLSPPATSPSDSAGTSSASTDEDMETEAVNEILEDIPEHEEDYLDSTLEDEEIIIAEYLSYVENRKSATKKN
Assay: SEC; size-exclusion chromatography (with SDS-PAGE) of N-FAT10-C0 with NUB1L, Figure S1; conditions are in the Supporting Information
Conditions: both partners purified

B1: Cys-free N-domain of human FAT10 (amino acids 5-86; C7T, C9T) (domain or fragment)
chain: GASTLTVHVRSEEWDLMTFDANPYDSVKKIKEHVRSKTKVPVQDQVLLLGSKILKPRRSLSSYGIDKEKTIHLTLKVVKPSDE
notes: additional glycine residue at the N-terminus that remains from the TEV protease cleavage site; FAT10 (human leukocyte antigen F adjacent transcript 10), human, N-domain, amino acids 5-86, with C7T and C9T; 83 residues together with the extra glycine; Uniformly 13C,15N labelled (M9 medium with U-13C6-D-glucose and 15N-ammonium chloride) for MAS NMR; Detailed protocols are in the Supporting …
- binding result: binds
